Experimental data reported in paper PMC7160673 (2020).
Like-named read-outs stand apart in the source and are kept apart here. Where no end group is shown, it is not given here. [ ]: non-standard residue; d: D form. The star is where a group is joined. 5FAM = O=C1OC2(c3ccc(O)cc3Oc3cc(O)ccc32)c2ccc(C(=O)*)cc21; Lys(Me3) = C[N+](C)(C)CCCC[C@H](N)C(=O)O

T1: Chromodomain Y-like protein 2 chromodomain
T1 chain: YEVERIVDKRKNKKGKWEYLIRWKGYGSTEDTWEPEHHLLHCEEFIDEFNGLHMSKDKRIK

T2: M Phase Phosphoprotein 8 chromodomain (UniProt Q99549 55-116)
T2 chain: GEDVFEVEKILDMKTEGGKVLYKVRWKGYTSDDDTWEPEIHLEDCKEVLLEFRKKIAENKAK


What was measured:
Assay in all cases: FP
[1] = target: T1, Chromodomain Y-like protein 2 …
[2] = target: T2, M Phase Phosphoprotein 8 chromodomain
[3] = target: T2, M Phase Phosphoprotein 8 chromodomain

| Binder | Kd [1] | Kd [2] | Kd [3] |
| --- | --- | --- | --- |
| 5FAM-TAR[Lys(Me3)]STG (also: flanking glycines, number not given here) [FAM-TAR(Kme3)STG peptide (H3K9me3)] | 18.4 µM | 11.5 µM |  |
| 5FAM-WAY[Lys(Me3)]TGK (also: flanking glycines, number not given here) [FAM-WAY(Kme3)TGK peptide] |  |  | 1.37 µM |
